The source of these data is patent US20230001013A1, “STABLE MONOMERIC INSULIN FORMULATIONS ENABLED BY SUPRAMOLECULAR PEGYLATION OF INSULIN ANALOGUES” (THE BOARD OF TRUSTEES OF THE LELAND STANFORD JUNIOR …, priority 2019, published 2023).

The nature of data set [1]: Insulin association state by SEC-MALS. The format is physicochemical. The following applies: for monomer / number average molecular weight (MW): zinc-free. From the text:
Excipient choice is important, because as in the case of Apidra (glulisine), the absence of zinc is not sufficient to result in an ultra-fast acting insulin formulation. To engineer an insulin formulation that promotes the monomer state, the effects of excipients on insulin association state under zinc-free conditions must be understood. Characterization by size exclusion chromatography with multiple angle light scattering (SEC-MALS) allows us to determine insulin molecular weight in formulation and estimate the fraction of hexamers, dimers and monomers under formulation conditions. […] To select for a mostly monomeric insulin formulation, we evaluated the effect of tonicity agents and preservatives on insulin association state.
Number-averaged molecular weight (MW) and dispersity (Ð=Mw/Mn) of formulations were obtained using size exclusion chromatography (SEC) carried out using a Dionex Ultimate 3000 instrument (including pump, autosampler, and column compartment) outfitted with a Dawn Heleos II Multi Angle Ligh Scattering detector, and a Optilab rEX refractive index detector. The column was a Superose 6 Increase 10/300 GL from GE healthcare. Data was analyzed using Astra 6.0 software.
Controls consisted of either (v) commercial Humalog formulation comprising glycerol (1.6%), meta-cresol (0.315%), dibasic sodium phosphate (0.188%), and zinc (0.00197%), or (vi) commercial Novolog formulation comprising glycerol (1.6%), meta-cresol (0.172%), phenol (0.15%), sodium chloride (0.058%), dibasic sodium phosphate (0.125%), and zinc (0.00196%). Insulin lispro and aspart were injected at a concentration of a minimum […] protein and a volume of 100 μL. A do/dc of 0.186 mL/g was used for all samples.
The molar fraction of monomeric, dimeric and hexameric insulin was determined by fitting experimentally derived number-averaged (Mn) and weight-averaged (Mw) molecular weights determined by SEC-MALS to Equation 1 and Equation 2, where m, d and h, respectively, represent the molar fractions of monomeric, dimeric and hexameric insulin while I represents the molecular weight of monomeric insulin (5831 g/mol). The solver was constrained so that m+d+h=1 while m, d and h remain between 0 and 1.
For orientation: In gel filtration, larger molecules generally elute earlier.

The target of data set [2] is N-terminal phenylalanine on insulin (Homo sapiens, UniProt P01308). Put plainly: Host-guest binding of CB[7]-PEG to insulin. The method, then: Referring to FIGS. 1A and 1B, existing insulin formulations contain a mixture of hexamers, dimers and monomers, which, upon subcutaneous injection, dissociate and are absorbed at different rates, shown diagrammatically in FIG. 1A. Non-covalent PEGylation is enabled by the strong specific binding between CB[7]-PEG and the N-terminal phenylalanine on insulin (KD=0.5 μM). Under high concentrations in formulation insulin will be greater than 98% bound, but after dilution upon subcutaneous injection less than 1% of CB[7]-PEG will remain associated with insulin. This differential absorption results in the rapid onset but long duration of action of these formulations, as indicated in the activity curve in FIG. 1B. […] The formulations described herein are directed to this objective.

For data set [3], the target named is insulin aspart (Homo sapiens, UniProt P01308, P52D). Put plainly: Acridine orange dye displacement competitive binding assay. The following applies: unmodified CB[7], AO displacement, one-site competitive binding model; read-out: binding affinity. The method, then: Unmodified CB[7] was purchased from Strem Chemicals and Acridine Orange (AO) was purchased from Sigma-Aldrich. Binding of CB[7] to aspart was assessed using the AO dye displacement assay, as previously described. Briefly, 6 μM of CB[7] and 8 μM AO were combined with 100 μL of aspart samples. Aspart samples were diluted to concentrations of 0, 0.01, 0.1, 0.3, 0.5, 1, 1.5, 2, 3, 4 μm in H2O. Samples were incubated overnight in light-free conditions, and fluorescent spectra were collected on an BioTek SynergyH1 microplate reader, exciting at 485 nm and collecting the resulting fluorescent spectra from 495 to 650 nm. The decay in the peak of AO fluorescent signal was fit to a one-site competitive binding model (GraphPad Prism, version 6.0), using the CB[7]·AO equilibrium constant reported previously (Keq=2×10^5 M^−1), to determine binding constants of unmodified CB[7] to insulin.

For data set [4] the following is noted: reported previously; cited from earlier work.
[5] abbreviates: phosphate buffer (pH=7.4), glycerol (2.6%).
Where [6] appears, read: phosphate buffer (pH=7.4), sodium chloride (0.9%).
The mark [7] stands for this setting: phosphate buffer, glycerol (2.6%) and meta-cresol (0.315%).
Setting [8] is: phosphate buffer, glycerol (2.6%) and phenoxyethanol (0.85%).

Regarding insulin aspart, the monomer in data set [1] (setting [5]) is listed as 91.4%; in data set [1] (setting [6]), 4.8%; in data set [1] (setting [7]), 71.0%; in data set [1] (setting [8]), 85.2%. For the same substance, the “number average molecular weight (MW)” value was determined as 7.4 kDa in data set [1] (setting [5]), 13 kDa in data set [1] (setting [6]), 9.4 kDa in data set [1] (setting [7]) and 7.4 kDa in data set [1] (setting [8]).
On to insulin lispro, for which the monomer in data set [1] (setting [5]) was 89.2%; in data set [1] (setting [6]), 55.0%; in data set [1] (setting [7]) it was 56.7%; in data set [1] (setting [8]), 71.5%. For the same substance, the “number average molecular weight (MW)” value came to 7.6 kDa in data set [1] (setting [5]), 8.7 kDa in data set [1] (setting [6]), 9.0 kDa in data set [1] (setting [7]) and 8.2 kDa in data set [1] (setting [8]).
With “Zinc free insulin: zinc free insulin in pure water”, the association state result in data set [1] (in pure water) is recorded as “completely monomeric”.
“cucurbit[7]uril-poly(ethylene glycol) [CB[7]-PEG]”: the Kd in data set [2] was determined as 0.5 µM. In addition, the “CB[7]-PEG remaining associated with insulin” value in data set [2] (after dilution following subcutaneous administration) is on record as “less than 1%”. In data set [2] (typical (high) formulation concentrations), the “fraction bound (CB[7]-PEG/insulin complex)” value was “greater than 98%”.
With cucurbit[7]uril [CB[7]], in data set [3], the Kd is 0.54 µM. Further, the Keq in data set [4] is 200000 M⁻¹.
